From publication PMC5961942 come the findings set out here.

The target in the experiment is trimeric PD-L1 trap (mouse) (UniProt Q02242). The experiment in a line: SDS-PAGE without reducing agent.

Substance “trimeric PD-L1 trap (from UniProt Q02242 21-150; P51942 458-500) (designed binder)” gave a stoichiometry N of 3.

A word on the stoichiometry N: it is the number of molecules, sites or subunits per partner or assembly.
